In the supplement of paper PMC10065799, “High-throughput profiling of sequence recognition by tyrosine kinases and SH2 domains using bacterial peptide display” (eLife, 2023):

What was measured:
Fer (mouse) = assay: phosphorylation enrichment, bacterial display (enrichment ratio); higher = better substrate or ligand; peptides without Tyr show the background
FGFR1 = FGFR1 (UniProt P11362); assay: as above
Fyn = Fyn (UniProt P06241); assay: as above
Jak2 = Jak2 (UniProt O60674); assay: as above
AncSZ = assay: as above
EPHB1 = EPHB1 (UniProt P54762); assay: as above
EPHB2 = EPHB2 (UniProt P29323); assay: as above
FGFR3 = FGFR3 (UniProt P22607); assay: as above
Hck = Hck (UniProt P08631); assay: as above
Fes = Fes (UniProt P07332); assay: as above
MERTK = MERTK (UniProt Q12866); assay: as above
c-Src = assay: as above
c-Abl (mouse) = assay: as above
SHP2-C SH2 = assay: SH2 binding enrichment of the phosphorylated peptide, bacterial display (enrichment ratio); higher = better substrate or ligand; peptides without Tyr show the background
Grb2 SH2 = Grb2 SH2 (UniProt P62993); assay: as above
c-Src SH2 = assay: as above
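Wherever SH2 binding enrichment of the phosphorylated peptide, bacterial display is given: peptide library displayed on the E. coli surface as eCPX fusions, selected cells deep-sequenced, score is each peptide's frequency after selection divided by its frequency in the input.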
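Wherever phosphorylation enrichment, bacterial display is given: 11-residue human phosphosite peptides and single-mutation variants displayed on the E. coli surface, counted by deep sequencing, each peptide's frequency after selection divided by its frequency in the unselected input library; frequency after pTyr selection over input frequency; kinase dosed for 20-30% of maximal phosphorylation in three min.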

Chain of FGFR3 (P22607 whole entry, looked up): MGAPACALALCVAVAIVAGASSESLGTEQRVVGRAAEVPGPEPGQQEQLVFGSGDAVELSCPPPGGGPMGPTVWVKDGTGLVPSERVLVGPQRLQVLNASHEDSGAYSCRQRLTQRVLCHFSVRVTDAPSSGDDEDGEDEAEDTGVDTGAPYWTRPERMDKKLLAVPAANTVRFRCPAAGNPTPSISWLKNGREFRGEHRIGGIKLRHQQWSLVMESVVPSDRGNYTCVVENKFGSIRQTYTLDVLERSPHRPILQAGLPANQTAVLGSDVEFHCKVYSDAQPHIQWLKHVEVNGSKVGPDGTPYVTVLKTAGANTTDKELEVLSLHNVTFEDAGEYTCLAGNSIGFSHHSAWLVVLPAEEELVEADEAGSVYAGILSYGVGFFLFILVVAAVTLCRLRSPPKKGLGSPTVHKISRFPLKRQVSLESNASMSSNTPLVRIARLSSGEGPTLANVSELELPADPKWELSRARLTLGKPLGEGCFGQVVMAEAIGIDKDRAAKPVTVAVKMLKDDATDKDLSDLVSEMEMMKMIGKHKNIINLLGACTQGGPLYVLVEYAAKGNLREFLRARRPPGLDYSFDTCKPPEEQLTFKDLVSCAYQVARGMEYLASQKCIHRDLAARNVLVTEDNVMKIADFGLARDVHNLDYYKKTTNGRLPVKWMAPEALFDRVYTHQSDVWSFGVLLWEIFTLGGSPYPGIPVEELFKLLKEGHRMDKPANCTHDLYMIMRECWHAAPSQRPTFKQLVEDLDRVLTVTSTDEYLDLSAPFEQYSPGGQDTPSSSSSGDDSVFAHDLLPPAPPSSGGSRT
Chain of Jak2 (O60674 whole entry, looked up): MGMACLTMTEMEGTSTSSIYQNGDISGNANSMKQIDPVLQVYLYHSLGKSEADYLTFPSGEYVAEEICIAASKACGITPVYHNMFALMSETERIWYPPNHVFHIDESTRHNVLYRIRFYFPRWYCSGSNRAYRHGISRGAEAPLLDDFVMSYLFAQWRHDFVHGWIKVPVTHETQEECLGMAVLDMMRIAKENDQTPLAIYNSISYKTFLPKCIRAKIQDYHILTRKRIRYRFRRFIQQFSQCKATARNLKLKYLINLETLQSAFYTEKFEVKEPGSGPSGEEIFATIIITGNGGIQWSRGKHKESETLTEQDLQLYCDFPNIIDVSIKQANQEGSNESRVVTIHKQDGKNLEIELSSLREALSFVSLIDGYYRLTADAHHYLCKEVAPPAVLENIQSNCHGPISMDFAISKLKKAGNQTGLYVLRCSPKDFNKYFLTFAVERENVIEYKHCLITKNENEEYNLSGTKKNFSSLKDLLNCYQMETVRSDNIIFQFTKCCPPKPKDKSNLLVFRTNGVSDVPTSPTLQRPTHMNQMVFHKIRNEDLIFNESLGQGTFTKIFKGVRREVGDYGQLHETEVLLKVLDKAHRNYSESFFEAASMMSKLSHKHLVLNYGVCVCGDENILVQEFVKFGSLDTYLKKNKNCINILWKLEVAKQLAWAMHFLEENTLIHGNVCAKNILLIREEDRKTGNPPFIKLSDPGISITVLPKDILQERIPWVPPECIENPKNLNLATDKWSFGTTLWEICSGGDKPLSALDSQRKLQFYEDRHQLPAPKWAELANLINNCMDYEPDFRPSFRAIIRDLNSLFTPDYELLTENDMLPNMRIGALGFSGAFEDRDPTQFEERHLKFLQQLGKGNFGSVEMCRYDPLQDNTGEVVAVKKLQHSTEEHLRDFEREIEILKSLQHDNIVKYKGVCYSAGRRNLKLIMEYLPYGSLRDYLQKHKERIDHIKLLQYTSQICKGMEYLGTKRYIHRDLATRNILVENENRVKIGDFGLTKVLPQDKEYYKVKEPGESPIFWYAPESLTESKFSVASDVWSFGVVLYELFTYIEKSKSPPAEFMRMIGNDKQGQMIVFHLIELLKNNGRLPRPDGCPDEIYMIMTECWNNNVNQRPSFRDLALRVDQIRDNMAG
Chain of EPHB2 (P29323 whole entry, looked up): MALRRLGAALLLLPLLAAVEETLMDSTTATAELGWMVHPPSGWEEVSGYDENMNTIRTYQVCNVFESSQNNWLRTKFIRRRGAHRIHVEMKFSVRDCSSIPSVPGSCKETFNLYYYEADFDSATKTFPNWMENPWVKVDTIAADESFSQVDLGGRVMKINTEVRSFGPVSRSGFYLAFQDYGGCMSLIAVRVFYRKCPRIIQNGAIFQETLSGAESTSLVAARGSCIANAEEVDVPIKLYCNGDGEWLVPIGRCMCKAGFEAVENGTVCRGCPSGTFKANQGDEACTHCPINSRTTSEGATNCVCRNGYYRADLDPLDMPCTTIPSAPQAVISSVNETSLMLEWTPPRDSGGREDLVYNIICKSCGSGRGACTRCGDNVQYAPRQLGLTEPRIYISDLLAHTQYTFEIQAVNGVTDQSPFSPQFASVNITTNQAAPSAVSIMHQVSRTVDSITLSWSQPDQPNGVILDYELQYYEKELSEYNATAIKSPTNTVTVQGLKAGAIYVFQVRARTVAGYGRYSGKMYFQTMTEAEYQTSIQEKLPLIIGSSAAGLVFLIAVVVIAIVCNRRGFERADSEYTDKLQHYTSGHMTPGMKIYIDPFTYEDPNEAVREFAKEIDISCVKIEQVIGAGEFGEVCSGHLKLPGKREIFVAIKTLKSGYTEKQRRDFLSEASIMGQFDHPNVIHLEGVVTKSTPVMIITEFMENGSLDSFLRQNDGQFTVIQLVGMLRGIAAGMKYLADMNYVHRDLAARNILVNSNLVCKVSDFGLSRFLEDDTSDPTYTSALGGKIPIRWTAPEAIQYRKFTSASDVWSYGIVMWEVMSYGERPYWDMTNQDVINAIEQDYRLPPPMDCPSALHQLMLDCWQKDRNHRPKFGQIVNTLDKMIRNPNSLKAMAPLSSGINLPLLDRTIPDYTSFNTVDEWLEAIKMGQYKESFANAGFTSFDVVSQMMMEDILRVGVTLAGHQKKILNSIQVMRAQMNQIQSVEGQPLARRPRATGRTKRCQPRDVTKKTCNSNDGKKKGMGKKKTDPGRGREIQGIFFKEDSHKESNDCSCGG
Chain of MERTK (Q12866 whole entry, looked up): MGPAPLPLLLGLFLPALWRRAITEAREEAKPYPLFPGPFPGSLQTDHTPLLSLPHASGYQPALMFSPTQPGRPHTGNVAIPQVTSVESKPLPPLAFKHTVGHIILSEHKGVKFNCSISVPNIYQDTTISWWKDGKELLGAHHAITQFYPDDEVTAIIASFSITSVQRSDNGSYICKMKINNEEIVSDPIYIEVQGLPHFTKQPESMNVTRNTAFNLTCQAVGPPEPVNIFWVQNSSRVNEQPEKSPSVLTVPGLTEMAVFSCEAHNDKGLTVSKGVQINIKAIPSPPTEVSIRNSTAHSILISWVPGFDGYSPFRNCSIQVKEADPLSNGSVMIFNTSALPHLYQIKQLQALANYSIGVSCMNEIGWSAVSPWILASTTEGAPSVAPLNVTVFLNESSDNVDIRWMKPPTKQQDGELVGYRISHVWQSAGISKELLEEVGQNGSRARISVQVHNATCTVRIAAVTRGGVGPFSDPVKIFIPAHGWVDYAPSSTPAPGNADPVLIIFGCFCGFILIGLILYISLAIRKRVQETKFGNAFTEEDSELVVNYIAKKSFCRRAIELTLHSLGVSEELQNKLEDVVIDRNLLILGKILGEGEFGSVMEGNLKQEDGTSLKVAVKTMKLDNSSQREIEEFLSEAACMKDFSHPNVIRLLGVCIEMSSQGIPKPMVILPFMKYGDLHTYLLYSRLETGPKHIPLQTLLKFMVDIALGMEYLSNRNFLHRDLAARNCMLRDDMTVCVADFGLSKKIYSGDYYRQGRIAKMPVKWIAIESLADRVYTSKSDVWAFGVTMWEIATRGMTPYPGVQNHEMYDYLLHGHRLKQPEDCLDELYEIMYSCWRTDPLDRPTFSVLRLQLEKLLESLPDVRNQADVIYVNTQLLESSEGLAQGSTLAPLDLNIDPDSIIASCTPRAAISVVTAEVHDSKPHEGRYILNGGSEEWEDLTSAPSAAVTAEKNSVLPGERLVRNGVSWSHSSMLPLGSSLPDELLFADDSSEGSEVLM
Chain of Hck (P08631 whole entry, looked up): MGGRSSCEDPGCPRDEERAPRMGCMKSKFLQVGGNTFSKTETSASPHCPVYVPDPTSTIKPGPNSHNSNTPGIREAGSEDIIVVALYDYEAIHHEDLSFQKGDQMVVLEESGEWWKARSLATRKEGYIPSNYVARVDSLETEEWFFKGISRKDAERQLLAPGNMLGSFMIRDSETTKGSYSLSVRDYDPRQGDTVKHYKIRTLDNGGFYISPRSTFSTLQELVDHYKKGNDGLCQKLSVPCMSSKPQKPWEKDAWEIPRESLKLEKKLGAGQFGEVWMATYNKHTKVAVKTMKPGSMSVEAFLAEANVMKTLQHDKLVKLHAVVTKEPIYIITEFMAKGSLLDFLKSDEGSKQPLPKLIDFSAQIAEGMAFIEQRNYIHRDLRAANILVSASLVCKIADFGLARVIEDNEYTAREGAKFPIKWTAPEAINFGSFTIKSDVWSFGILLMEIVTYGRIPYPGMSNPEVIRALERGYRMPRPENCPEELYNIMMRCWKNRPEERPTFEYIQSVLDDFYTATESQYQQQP
Chain of Fyn (P06241 whole entry, looked up): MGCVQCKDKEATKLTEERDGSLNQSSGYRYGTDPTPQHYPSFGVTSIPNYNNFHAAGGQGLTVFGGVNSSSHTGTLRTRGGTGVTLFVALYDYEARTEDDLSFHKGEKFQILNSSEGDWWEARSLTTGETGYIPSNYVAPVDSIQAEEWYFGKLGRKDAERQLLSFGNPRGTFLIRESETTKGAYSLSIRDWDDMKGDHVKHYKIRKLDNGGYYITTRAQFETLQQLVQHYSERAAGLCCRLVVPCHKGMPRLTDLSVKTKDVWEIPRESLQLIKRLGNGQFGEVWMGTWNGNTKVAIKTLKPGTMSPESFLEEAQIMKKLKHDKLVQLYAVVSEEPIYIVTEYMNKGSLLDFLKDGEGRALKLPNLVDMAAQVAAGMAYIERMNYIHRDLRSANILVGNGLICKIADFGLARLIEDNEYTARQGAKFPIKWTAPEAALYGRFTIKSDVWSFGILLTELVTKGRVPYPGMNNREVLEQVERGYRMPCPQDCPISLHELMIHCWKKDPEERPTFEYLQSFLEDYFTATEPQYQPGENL

SH2 binding enrichment (SHP2-C SH2)	SH2 binding enrichment (Grb2 SH2)	SH2 binding enrichment (c-Src SH2)	Sequence	phosphorylation enrichment (Fer (mouse))	phosphorylation enrichment (FGFR1)	phosphorylation enrichment (Fyn)	phosphorylation enrichment (Jak2)	phosphorylation enrichment (AncSZ)	phosphorylation enrichment (EPHB1)	phosphorylation enrichment (EPHB2)	phosphorylation enrichment (FGFR3)	phosphorylation enrichment (Hck)	phosphorylation enrichment (Fes)	phosphorylation enrichment (MERTK)	phosphorylation enrichment (c-Src)	phosphorylation enrichment (c-Abl (mouse))
1.61	0.884	2	VYSIDYYRVGG [NTRK2_Y706_T704I]	3.79	10.9	6.29	7.33	2.29	4.12	3.13	9.09	3.95	0.836	9.3	5.1	0.788
0.62	0.798	0.442	VYSSDYFSFVL [USP24_Y2138]	0.875	9.06	4.46	5.25	2.21	3.74	3.95	7.74	1.95	1.35	5.03	4.61	2.92
0.694	0.774	0.368	WEPFGFAVTRC [PTPRT_Y412_Y412F]	0.548	0.447	0.409	1.4	1.18	0.702	0.653	0.845	0.456	1.48	0.399	0.409	1
0.639	0.893	1	WGTAEYDSVVA [MAP1A_Y1883]	1.57	0.583	0.66	1.18	1.4	0.685	0.86	0.817	1.16	1.24	0.456	0.819	0.703
1.35	1.14	0.807	WIPIQYPIISE [NOG_Y222]	0.508	0.394	0.427	0.622	0.782	0.421	0.439	0.571	0.439	0.807	0.343	0.354	0.59
0.933	1.02	0.608	WSRAMYPDLGP [STARD8_Y330]	0.435	0.467	0.463	0.579	0.745	0.396	0.397	0.575	0.463	0.779	0.478	0.39	0.52

More lines, now with the values behind:

Sequence	SH2 binding enrichment (SHP2-C SH2)	SH2 binding enrichment (Grb2 SH2)	SH2 binding enrichment (c-Src SH2)	phosphorylation enrichment (Fer (mouse))	phosphorylation enrichment (FGFR1)	phosphorylation enrichment (Fyn)	phosphorylation enrichment (Jak2)	phosphorylation enrichment (AncSZ)	phosphorylation enrichment (EPHB1)	phosphorylation enrichment (EPHB2)	phosphorylation enrichment (FGFR3)	phosphorylation enrichment (Hck)	phosphorylation enrichment (Fes)	phosphorylation enrichment (MERTK)	phosphorylation enrichment (c-Src)	phosphorylation enrichment (c-Abl (mouse))
VYPATYHPDHW [EFCAB12_Y544]	0.635	1.03	0.53	0.419	0.564	0.465	0.639	0.554	0.423	0.385	0.828	0.689	0.662	0.296	0.436	0.526
WAAQRYGRELR [BAD_Y110]	0.583	0.758	0.508	0.398	0.464	0.445	0.782	0.887	0.406	0.433	0.396	0.476	0.742	0.514	0.487	0.599
WFQTKYEELQI [KRT6B_Y360_YF]	1.12	0.953	8.63	0.46	0.428	0.38	0.987	0.839	0.446	0.488	0.633	0.417	0.981	0.403	0.398	0.651
WFQTKYEELQV [KRT6B_Y360_I365V_YF]	1.08	0.891	8.95	0.459	0.478	0.359	0.788	0.915	0.462	0.525	0.564	0.442	0.94	0.305	0.329	0.712
WQQQSYLYSGI [CTNNB1_Y30_D32Y]	0.687	0.972	1.37	5.61	1.07	7.05	1.52	1.16	3.97	5.03	1.03	7.73	1.48	7.49	5.93	0.851
WSISFYPQVIM [CTNS_Y143]	0.588	0.883	0.571	0.471	0.513	0.354	1.19	1.21	0.586	0.552	0.805	0.399	1.33	0.301	0.35	0.623
WYQTKYEELQV [KRT6B_Y360_I365V]	0.834	0.832	6.2	0.568	0.521	0.519	1.02	1.11	0.61	0.707	0.753	0.723	1.28	0.394	0.452	0.741
